For series [1], the target named is Protamine sulfate from salmon.
For series [2], the target named is T1, human recombinant IFN-γ, P01579.
T1 chain: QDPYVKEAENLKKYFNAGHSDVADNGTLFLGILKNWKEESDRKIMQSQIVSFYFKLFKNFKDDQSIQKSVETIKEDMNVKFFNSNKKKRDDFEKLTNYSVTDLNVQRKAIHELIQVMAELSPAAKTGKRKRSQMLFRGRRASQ

The target of another series is T2, D-val-leu-lys-pNA.
T2 chain: VLK

The target of series [3] is human recombinant TNF-α, P01375.
In series [4] the target is T3, mouse recombinant TNF-α, P06804.
T3 chain: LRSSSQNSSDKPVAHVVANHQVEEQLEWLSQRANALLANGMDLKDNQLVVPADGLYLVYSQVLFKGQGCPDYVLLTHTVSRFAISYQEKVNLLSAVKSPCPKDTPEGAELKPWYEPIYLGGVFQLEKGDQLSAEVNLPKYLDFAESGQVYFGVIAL

Series [5] deals with T4, mouse recombinant IFN-γ, P01580.
T4 chain: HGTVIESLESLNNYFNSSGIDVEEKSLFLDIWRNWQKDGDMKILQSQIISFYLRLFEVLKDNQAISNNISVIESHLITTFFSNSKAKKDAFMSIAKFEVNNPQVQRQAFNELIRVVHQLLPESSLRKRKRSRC

Chain of human recombinant TNF-α, P01375 (P01375 77-233): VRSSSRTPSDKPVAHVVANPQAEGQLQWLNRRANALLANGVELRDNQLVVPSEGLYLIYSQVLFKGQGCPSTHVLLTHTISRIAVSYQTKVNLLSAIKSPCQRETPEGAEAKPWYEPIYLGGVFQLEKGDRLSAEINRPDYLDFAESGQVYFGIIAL

B1: Aspergillus oryzae 26 kDa protease (protein)
chain: HASADAWASSKAISSTSSPSSFKMRFISVSSLLLALAPALNAVPVEVAGSAQGLDVTLSQVGNTRIKAWKNTGSEDVTFVHLNFFKDAAPVQKVSLFRNATEVQFQGIKQRLITEGLSDDALTTLAPGATIEDEFDIASTSDLSEGGTITINSNGLVPITTDNKVTGYIPFTSNELSIDVDAAEAASVTQAVKILERRTKVTSCSGSRLSALQTALRNTVSLARAAATAAQSGSSSRFQEYFKTTSSSTRSTVAARLNAVANEAASTSSGSTTYYCSDVYGYCSSNVLAYTLPSYNIIANCDLYYSYLPALTSTCHAQDQATTTLHEFTHAPGVYSPGTDDLGYGYSAATALSASQALLNADTYALFANAVNLNC
On to B1, for which the Specific activity: Salmon protamine (nmoles Leucine/30 min./µg protein) (nmoles Leucine/30 min./µg protein) in series [1] worked out at 679. For the same protein, the “cleavage by Western blot” value in series [2] is “cleave human IFN-γ”. The same protein gave a Specific activity: Val-leu-lys-pNA (mOD/min/µg protein) (mOD/min/µg protein) with D-val-leu-lys-pNA of 2.1.

B2: Aspergillus oryzae Deuterolysin (Neutral Protease II) (protein)
chain: TEVTDCKGDAESSLTTALSNAAKLANQAAEAAESGDESKFEEYFKTTDQQTRTTVAERLRAVAKEAGSTSGGSTTYHCNDPYGYCEPNVLAYTLPSKNEIANCDIYYSELPPLAQKCHAQDQATTTLHEFTHAPGVYQPGTEDLGYGYDAATQLSAQDALNNADSYALYANAIELKC
Turning to B2, the Specific activity: Salmon protamine (nmoles Leucine/30 min./µg protein) (nmoles Leucine/30 min./µg protein) in series [1] came out at 677. Besides, the “proteolysis by Western blotting” value in series [3] is reported as “deuterolysin was without significant effect”. Further, the “cleavage by Western blot” value in series [2] is “cleave human IFN-γ”. In the series with D-val-leu-lys-pNA, this protein returned a Specific activity: Val-leu-lys-pNA (mOD/min/µg protein) (mOD/min/µg protein) of 2.3.

B3: Aspergillus oryzae alkaline protease (protein)
chain: GLTTQKSAPWGLGSISHKGQQSTDYIYDTSAGEGTYAYVVDSGVNVDHEEFEGRASKAYNAAGGQHVDSIGHGTHVSGTIAGKTYGIAKKASILSVKVFQGESSSTSVILDGFNWAANDIVSKKRTSKAAINMSLGGGYSKAFNDAVENAFEQGVLSVVAAGNENSDAGQTSPASAPDAITVAAIQKSNNRASFSNFGKVVDVFAPGQDILSAWIGSSSATNTISGTSMATPHIVGLSLYLAALENLDGPAAVTKRIKELATKDWKDVKGSPNLLAYNGNA
On to B3, for which the “cleavage by Western blotting” value in series [4] and in series [5] was “evidenced the same substrate specificity” in each case. The Specific activity: Salmon protamine (nmoles Leucine/30 min./µg protein) (nmoles Leucine/30 min./µg protein) in series [1] amounted to 951. Also, the “proteolysis by Western blotting” value in series [3] is “produced a similar pattern of cleavage”. The “cleavage by Western blot” value in series [2] is reported as “the protease did not cleave human IFN-γ”. This protein also registered a Specific activity: Val-leu-lys-pNA (mOD/min/µg protein) (mOD/min/µg protein) in the series with D-val-leu-lys-pNA of 117.

For the origin of these results see patent publication US20080081035.
